The chains are these.
B1: Kelch-like protein 12 (Homo sapiens), Q53G59 (parent)
chain: MGGIMAPKDIMTNTHAKSILNSMNSLRKSNTLCDVTLRVEQKDFPAHRIVLAACSDYFCAMFTSELSEKGKPYVDIQGLTASTMEILLDFVYTETVHVTVENVQELLPAACLLQLKGVKQACCEFLESQLDPSNCLGIRDFAETHNCVDLMQAAEVFSQKHFPEVVQHEEFILLSQGEVEKLIKCDEIQVDSEEPVFEAVINWVKHAKKEREESLPNLLQYVRMPLLTPRYITDVIDAEPFIRCSLQCRDLVDEAKKFHLRPELRSQMQGPRTRARLGANEVLLVVGGFGSQQSPIDVVEKYDPKTQEWSFLPSITRKRRYVASVSLHDRIYVIGGYDGRSRLSSVECLDYTADEDGVWYSVAPMNVRRGLAGATTLGDMIYVSGGFDGSRRHTSMERYDPNIDQWSMLGDMQTAREGAGLVVASGVIYCLGGYDGLNILNSVEKYDPHTGHWTNVTPMATKRSGAGVALLNDHIYVVGGFDGTAHLSSVEAYNIRTDSWTTVTSMTTPRCYVGATVLRGRLYAIAGYDGNSLLSSIECYDPIIDSWEVVTSMGTQRCDAGVCVLREK
B2: Kelch repeat and BTB domain-containing protein 8 (Homo sapiens), Q8NFY9 (parent)
chain: MAASADLSKSSPTPNGIPSSDPASDAMDPFHACSILKQLKTMYDEGQLTDIVVEVDHGKTFSCHRNVLAAISPYFRSMFTSGLTESTQKEVRIVGVEAESMDLVLNYAYTSRVILTEANVQALFTAASIFQIPSIQDQCAKYMISHLDPQNSIGVFIFADHYGHQELGDRSKEYIRKKFLCVTKEQEFLQLTKDQLISILDSDDLNVDREEHVYESIIRWFEHEQNEREVHLPEIFAKCIRFPLMEDTFIEKIPPQFAQAIAKSCVEKGPSNTNGCTQRLGMTASEMIICFDAAHKHSGKKQTVPCLDIVTGRVFKLCKPPNDLREVGILVSPDNDIYIAGGYRPSSSEVSIDHKAENDFWMYDHSTNRWLSKPSLLRARIGCKLVYCCGKMYAIGGRVYEGDGRNSLKSVECYDSRENCWTTVCAMPVAMEFHNAVEYKEKIYVLQGEFFLFYEPQKDYWGFLTPMTVPRIQGLAAVYKDSIYYIAGTCGNHQRMFTVEAYDIELNKWTRKKDFPCDQSINPYLKLVLFQNKLHLFVRATQVTVEEHVFRTSRKNSLYQYDDIADQWMKVYETPDRLWDLGRHFECAVAKLYPQCLQKVL

Variants of B1 are the subject of one assay. The note with it: with fxl17_human FBXL17, Q9UF56.
Target sequence in this assay (Q9UF56 whole entry): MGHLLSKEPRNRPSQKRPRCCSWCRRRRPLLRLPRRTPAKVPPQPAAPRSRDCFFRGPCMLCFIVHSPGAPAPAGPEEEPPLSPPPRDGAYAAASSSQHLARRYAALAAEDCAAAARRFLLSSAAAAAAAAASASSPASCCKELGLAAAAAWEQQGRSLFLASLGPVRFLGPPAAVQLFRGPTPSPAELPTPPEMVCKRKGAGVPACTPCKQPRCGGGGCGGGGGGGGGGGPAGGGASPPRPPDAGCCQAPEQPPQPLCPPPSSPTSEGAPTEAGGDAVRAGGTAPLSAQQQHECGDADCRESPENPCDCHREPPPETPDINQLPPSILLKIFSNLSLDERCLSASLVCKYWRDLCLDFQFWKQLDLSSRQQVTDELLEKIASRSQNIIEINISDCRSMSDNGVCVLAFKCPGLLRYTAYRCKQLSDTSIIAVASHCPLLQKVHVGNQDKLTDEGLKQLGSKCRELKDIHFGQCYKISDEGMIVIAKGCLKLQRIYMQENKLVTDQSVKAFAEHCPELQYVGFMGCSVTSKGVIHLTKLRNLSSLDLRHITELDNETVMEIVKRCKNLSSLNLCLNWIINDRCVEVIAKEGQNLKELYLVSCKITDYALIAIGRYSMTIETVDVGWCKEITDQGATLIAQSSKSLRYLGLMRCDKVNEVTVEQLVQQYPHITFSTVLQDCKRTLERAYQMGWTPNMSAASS
N24K: the “effect of a mutation on the interaction” value is listed as “causing an interaction”.

Consider C33F, for which the “effect of a mutation on the interaction” value is “causing an interaction”. Still for that read-out and setting: in the case of R27A it was “causing an interaction”; in that of R27D, “with no effect”; in that of R27A;A60K, “with no effect”. Same read-out and setting: the result for V50A reads “causing an interaction”. As for N24K;A60K, the “effect of a mutation on the interaction” value is reported as “with no effect”. Same read-out and setting: the result for S67A reads “with no effect”; that for S67E, “disrupting interaction strength”; that for I49A, “causing an interaction”. For I49D, the “effect of a mutation on the interaction” value is “causing an interaction”. V50A;A60K: the “effect of a mutation on the interaction” value is listed as “with no effect”. Consider C33F;A60K, for which the “effect of a mutation on the interaction” value is “with no effect”.

The variants in a further assay derive from B1. Particulars: with cul3_human CUL3, Q13618.
As for V50A, the “effect of a mutation on the interaction” value is given as “with no effect”.

In a further assay the parent is B2. The note with it: with fxl17_human FBXL17, Q9UF56.
Target sequence in this assay (Q9UF56 whole entry): as above
L39A: the “effect of a mutation on the interaction” value was “decreasing interaction strength”. In the case of L39D, the “effect of a mutation on the interaction” value is “disrupting interaction strength”.

With V67D, the “effect of a mutation on the interaction” value was “disrupting interaction strength”. As for V67A, the “effect of a mutation on the interaction” value was “increasing interaction strength”. As to Y43D, the “effect of a mutation on the interaction” value is listed as “disrupting interaction strength”.

Regarding Y43A, the “effect of a mutation on the interaction” value is “increasing interaction strength”. The same measure, in the same setting: the result for K40A reads “with no effect”; that for K40D, “increasing interaction strength”.

These data come from IntAct's records for PubMed 30190310.
